Results as given in patent publication US8084213, “Selection” (Domantis Limited).

How the values were obtained:
Vk(E5)-scArc-HA = Vk(E5)-scArc-HA (Phage P22 / human Vk); test: co-capture PCR; recovered also on beta-galactosidase; settings: tags: N-terminal Vk(E5) dAb fusion, C-terminal HA; chain copies: 2 scArc per operator (stated)
Procedure: (§1) The monoclonal high-affinity α-HA mAb 3F10 recognises the C-terminal HA tag, β-galactosidase and protein L can be expected to interact with the $V_\kappa$(E5) light chain domain, while BSA serves as the negative control. At the end of the incubation the coating solution is removed and the first blocking solution consisting of 150 µl of 10 ng/ml biotinylated BSA (Sigma) in PBS is added to the wells and incubated for 15 minutes. At the end of the incubation the wells are washed three times with 150 µl of PBS and blocked additionally for 30 min at room temperature with buffer C+.
25 µl S30 in vitro translation reactions (EcoPro T7, Novagen) are assembled according to the manufacturer's instructions and supplemented with 1.5 µl of 1.7 mM PCR-amplified template in 0.1 mg/ml RNA and 0.75 µl of 100 mM oxidized glutathione. Translation reactions are incubated at 23° C. for 4 hours and diluted with 150 µl of buffer C+ (10 mM Tris, 100 mM KCl, 0.05% Tween 20, 5 mM MgCl_2, 0.1 mM EDTA, 1% w/v BSA) before being applied in 50 µl aliquots to the pre-coated tubes cut from Strep Thermofast 96-well plates (Advanced Biotech) and allowed to bind for 30 min at room temperature. […]
(§2) The PCR amplification products are analysed by 1% agarose gel electrophoresis in TAE in the presence of ethidium bromide and imaged using GeneGeius Bio Imaging System (Syngene). […]

[1] = target: T1, scArc-HA (pIE3 series, single-chain Arc repressor dimer) (Phage P22); test: co-capture of DNA on anti-HA 3F10 surface, PCR detection; settings: tags: C-terminal HA; chain copies: 2 scArc per operator (stated)
T1 chain: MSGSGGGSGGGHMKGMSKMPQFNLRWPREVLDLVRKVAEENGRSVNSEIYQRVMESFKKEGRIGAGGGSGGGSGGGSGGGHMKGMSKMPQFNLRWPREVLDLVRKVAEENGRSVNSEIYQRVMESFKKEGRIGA
Procedure: In a typical solution expression experiment 1 μl of 1.7 nM template in 0.2 mg/ml tRNA is added to 25 μl EcoPro T7 in vitro translation mix Novagen), supplemented with 0.75 μl of 100 mM oxidized glutathione (Sigma), and incubated at 25° C. for four hours. During the translation reaction the streptavidin-coated PCR tubes, cut from Strep Thermofast 96-well plates (Abgene), are first incubated at room temperature for three hours with 50 μl of at least 40 nM biotinylated target protein in PBS. The coating buffer is thereafter removed and any remaining free biotin-binding sites are blocked with a 15 min pulse of 50 μg/ml biotinylated BSA in PBS. The pre-coated wells are thereafter three times washed with PBS and then filled with 100 μl of binding buffer C+ (100 mM KCl, 20 mM Tris, 5 mM MgCl_2, 0.05% Tween 20, 0.05 mM EDTA, 1% BSA). Upon completion of the translation reaction the products are diluted in Buffer C+ and applied to the pre-coated and blocked PCR tubes, allowed to bind for 30 min at room temperature and washed 4 times with 150 μl of Buffer C+. […]

scArc-Vk(E5)-HA = scArc-Vk(E5)-HA (Phage P22 / human Vk); test: co-capture PCR; settings: tags: C-terminal Vk(E5) dAb fusion, chain copies: 2 scArc per operator (stated)
Procedure: as §1, with “Tubes from Strep Thermofast 96-well plates are coated by applying 2 µl of 0.05 mg/ml biotinylated rat anti-HA mAb (clone 3F10, Roche), 0.2 µl of 0.5 mg/ml biotinylated protein L (Pierce), 1 µl of biotinylated 1 mg/ml β-galactosidase or 0.1 µl of 5 mg/ml biotinylated BSA (Sigma) respectively in 50 µl aliquots of PBS and incubating for 3 hours at room temperature. The” for “The”
25 µl S30 in vitro translation reactions (EcoPro T7, Novagen) are assembled according to the manufacturer's instructions and supplemented with 1.5 µl of 1.7 mM PCR-amplified template in 0.1 mg/ml RNA and 0.75 µl of 100 mM oxidized glutathione. […]
as §2

Measured: binding result

B1: Arc operator, one copy, on linear genetic element (dsDNA)
DNA 1: ATGATAGAAGCACTCTACTAT
DNA 2: ATAGTAGAGTGCTTCTATCAT
binds: all assays above
